Experimental data as given in patent US20230348572A1 (ROSALIND FRANKLIN INSTITUTE, published 2023).
Read-outs that look alike come from different tables or passages of the source.

Key:
[1] = molecular target: T1, SARS-CoV-2 spike glycoprotein ectodomain (prefusion-stabilized, trimeric) (SARS-CoV-2, UniProt P0DTC2 14-1208)
[2] = molecular target: T1, SARS-CoV-2 spike glycoprotein …; assay: ITC, Spike in the cell, H11-H4 in the syringe
[3] = molecular target: T1, SARS-CoV-2 spike glycoprotein …; assay: ITC, nanobody titrated into trimeric Spike, 1:1 nanobody:monomer
[4] = molecular target: T1, SARS-CoV-2 spike glycoprotein …; remark: listed apart in the source

B1: NbRBD_H11-H4 (VHH)
VHH: QVQLVESGGGLMQAGGSLRLSCAVSGRTFSTAAMGWFRQAPGKEREFVAAIRWSGGSAYYADSVKGRFTISRDKAKNTVYLQMNSLKYEDTAVYYCAQTHYVSYLLSDYATWPYDYWGQGTQVTVSS
notes: also called nanobody H11-H4
ΔH [1]: -74 kJmol-1 | ΔS [1]: -107 Jmol-1K-1 | ΔH [2]: -73 kJmol-1 | ΔS [2]: -103 Jmol-1K-1 | Kd [3]: 44 nM

B2: NbRBD_H11-D4 (VHH)
VHH: QVQLVESGGGLMQAGGSLRLSCAVSGRTFSTAAMGWFRQAPGKEREFVAAIRWSGGSAYYADSVKGRFTISRDKAKNTVYLQMNSLKYEDTAVYYCARTENVRSLLSDYATWPYDYWGQGTQVTVSS
notes: also called nanobody H11-D4
ΔH [4]: -81.2 kJmol-1 | ΔS [4]: -136 Jmol-1K-1 | Kd [3]: 79 nM
